Experimental data as given in patent publication US20060148057A1, “Thioredoxin mutants and uses thereof” (priority 2002, published 2006).

T1: ASK1 (Homo sapiens, UniProt Q99683)
T1 construct: wild type ASK1 (ASK1-WT, aa 1-1375); expressed in transfected cells; host or cells: BAEC
T1 sequence (Q99683 1-1374): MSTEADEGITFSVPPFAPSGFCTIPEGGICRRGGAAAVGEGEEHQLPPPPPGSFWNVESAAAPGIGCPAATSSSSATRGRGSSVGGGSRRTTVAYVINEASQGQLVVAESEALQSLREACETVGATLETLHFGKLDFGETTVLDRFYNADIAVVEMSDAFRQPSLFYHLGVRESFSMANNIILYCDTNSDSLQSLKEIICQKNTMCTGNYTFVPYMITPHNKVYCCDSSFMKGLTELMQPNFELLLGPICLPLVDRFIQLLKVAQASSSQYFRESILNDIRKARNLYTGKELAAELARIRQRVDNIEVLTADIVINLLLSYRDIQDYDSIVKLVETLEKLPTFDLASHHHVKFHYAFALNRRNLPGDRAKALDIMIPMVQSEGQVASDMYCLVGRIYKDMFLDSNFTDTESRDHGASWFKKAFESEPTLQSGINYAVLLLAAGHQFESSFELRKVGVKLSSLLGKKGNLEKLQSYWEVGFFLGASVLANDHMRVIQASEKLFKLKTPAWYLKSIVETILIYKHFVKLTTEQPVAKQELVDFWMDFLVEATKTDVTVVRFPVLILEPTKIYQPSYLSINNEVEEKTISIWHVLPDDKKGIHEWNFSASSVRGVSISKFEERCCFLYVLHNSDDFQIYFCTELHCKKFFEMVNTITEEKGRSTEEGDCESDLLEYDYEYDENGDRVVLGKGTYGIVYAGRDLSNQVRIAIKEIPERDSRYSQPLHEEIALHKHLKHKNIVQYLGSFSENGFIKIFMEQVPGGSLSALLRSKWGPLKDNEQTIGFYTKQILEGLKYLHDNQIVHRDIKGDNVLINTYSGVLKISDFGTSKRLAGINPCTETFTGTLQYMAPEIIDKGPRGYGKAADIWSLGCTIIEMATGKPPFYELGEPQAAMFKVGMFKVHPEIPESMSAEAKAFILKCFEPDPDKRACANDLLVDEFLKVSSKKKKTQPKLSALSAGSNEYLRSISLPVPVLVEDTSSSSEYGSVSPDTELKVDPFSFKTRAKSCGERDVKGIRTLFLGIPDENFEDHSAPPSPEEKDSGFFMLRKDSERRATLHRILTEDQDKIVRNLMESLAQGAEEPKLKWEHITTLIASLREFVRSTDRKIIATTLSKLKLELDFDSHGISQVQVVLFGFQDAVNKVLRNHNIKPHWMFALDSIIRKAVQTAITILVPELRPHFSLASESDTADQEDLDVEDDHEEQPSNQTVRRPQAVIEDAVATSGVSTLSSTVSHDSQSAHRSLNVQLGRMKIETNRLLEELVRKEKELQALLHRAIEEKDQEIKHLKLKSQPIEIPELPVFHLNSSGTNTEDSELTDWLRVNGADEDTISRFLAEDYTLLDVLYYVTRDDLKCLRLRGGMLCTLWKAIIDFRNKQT


Key:
[1] = molecular target: T1, ASK1; test: GST-Trx pull-down assay; format: binding; details: for ASK1 bound to GST-Trx: in the presence of 1 mM DTT; for association of GST-Trx with ASK1: in the presence of 1 mM H2O2
Description: GST-Trx pull-down assay: GST fusion protein preparation and GST pull-down assay were performed as described previously. […] Briefly, GST-Trx fusion proteins expressed in Escherichia coli XL-1 blue were affinity purified on glutathione-Sepharose beads (Pharmacia). 400 μg of cell lysates expressing HA-tagged ASK1 were incubated with 10 μg of GST-Trx bound to glutathione-Sepharose in the lysis buffer containing either 1 mM DTT or 1 mM H2O2. The beads were washed 4 times with the lysis buffer before the addition of boiling Laemmli sample buffer. Bound ASK1 proteins were resolved on SDS-PAGE and detected by Western blot with anti-HA.
Hydrogen peroxide dissociates wild type Trx but not Trx-C32S or Trx-C35S from ASK1 in vitro. Association of ASK1 with various Trx proteins - Trx-WT, Trx-CS, Trx-C32S or Trx-C35S in the presence of 1 mM DTT or H202 in an in vitro GST pull-down assay. Bacteria-expressed GST-Trx proteins were purified and protein concentrations were determined by SDS-PAGE (FIG. 2A). […] ASK1 bound to GST-Trx was determined by Western blot with anti-HA.

[2] = test system: Akt; test: ASK1-induced inhibition of IGF1-induced Akt phosphorylation in EC (Western blot p-Ser473); format: cell-based, Bovine; details: co-expression with ASK1, IGF1 10 ng/ml for 10 min
Description: EC were transfected with plasmids as indicated: control vector (VC), HA-Akt, HA-ASK1 with different Trx constructs. Cells were treated with IGF1 (10 ng/ml for 10 min). Akt hosphorylation was examined by western blot with phospho-Akt (Ser473)-specific antibody (p-Akt). Akt and ASK1 expression were determined by western blot with anti-HA.
To determine a role of ASK1 in ROS/TNF-induced IR (impairment of insulin/IGF1 signaling) in EC, the effects of ASK1 activation on IGF1-induced phosphorylation of IRS-1, Akt and eNOS activity were examined. IGF-1 was chosen because cultured EC express IGF1 receptor at higher level than that of insulin receptor. BAEC were transfected with VC or ASK1 expression construct, cells were treated with IGF1 (10 ng/ml) for indicated time. SOCS3 was used as a control which has been shown as a suppressor of IRS-1 activation. Activation (tyrosine phosphorylation) of IRS-1 was determined by IP/Western blot with anti-phosphotyrosine. Akt phosphorylation at Ser-473, a hallmarker for Atk activity was determined by Western blot with p-Ser473-specific antibody. The eNOS enzymatic activity was also by an enzymatic assay based on the conversion of 3H-L-arginine to 3H-citrulline (Calbiochem, Nitric Oxide Synthase Assay Kit).
To determine if Trx protects ASK1-induced inhibition on IGF1 signaling, Trx and ASK1 were coexpressed as in the above experiments. […] To test this, the effects of TZDs (insulin-sensitizers) and statins on ASK1 activity were tested. […] Inhibition of ASK1 may due to their anti-oxidant activities of these drugs which may be indirect by inhibiting TNF-dependent generation of ROS.

Molecule	ASK1 bound to GST-Trx [1]	association of GST-Trx with ASK1 [1]	ASK1-induced reduction of Akt phosphorylation [2]
thioredoxin (protein, Flag tag or GST fusion, Flag-tagged or GST fusion) MVKQIESKTAFQEALDAAGDKLVVVDFSATWCGPCKMIKPFFHSLSEKYSNVIFLEVDVDDCQDVASECEVKCMPTFQFFKKGQKVGEFSGANKEKLEATINELV	bound	disrupted the association	prevents
Trx-C32S: C32S single mutant of Trx at the catalytic site, SEQ ID NO:2 (protein) MVKQIESKTAFQEALDAAGDKLVVVDFSATWSGPCKMIKPFFHSLSEKYSNVIFLEVDVDDCQDVASECEVKCMPTFQFFKKGQKVGEFSGANKEKLEATINELV	bound	retained their associations with ASK1	prevents
Trx-C35S: C35S single mutant of Trx at the catalytic site, SEQ ID NO:3 (protein) MVKQIESKTAFQEALDAAGDKLVVVDFSATWCGPSKMIKPFFHSLSEKYSNVIFLEVDVDDCQDVASECEVKCMPTFQFFKKGQKVGEFSGANKEKLEATINELV	bound	retained their associations with ASK1	prevents
